In publication PMC8753184:

Test: preparative SEC and analytical FSEC homogeneity
Details: glycan lost; control: mG6PC1-WT

B1: mouse glucose-6-phosphatase catalytic subunit 1 (mG6PC1): N96A (protein)
parent chain: MEEGMNILHDFGIQSTRYLQVNYQDSQDWFILVSVIADLRNAFYVLFPIWFHLKETVGINLLWVAVVGDWFNLVFKWILFGQRPYWWVLDTDYYSNSSVPIIKQFPVTCETGPGSPSGHAMGAAGVYYVMVTSTLAIFRGKKKPTYGFRCLNVILWLGFWAVQLNVCLSRIYLAAHFPHQVVAGVLSGIAVAETFSHIRGIYNASLRKYCLITIFLFGFALGFYLLLKGLGVDLLWTLEKAKRWCERPEWVHLDTTPFASLFKNLGTLLGLGLALNSSMYRKSCKGELSKLLPFRFACIVASLVLLHLFDSLKPPSQVELIFYILSFCKSATVPFASVSLIPYCLARILGQTHKKSL
stability_or_folding: no change
